A short description of this data set: label from the status in PepcDB records.
Turning to “MLSIEVTVFAAIAYLTILFSIAYRGDRGASNRVRPYRYSLAQGVHCTSWAFFGTITQSAYYGWAFAPTYVGAIIVFILLHSLQLKLLNYCKHQNITSIADLIGTRYGKSPVLAGVVAITAFIAVVPYISLQLRAVTSSFATVTGFDTNPSWIFDLSFLVALTMIGFGFLFGTRRLSLAEQHSGLMDAIAFESLVKLAAFIIVGLFASYTVFDGLADLFQKSFETQHTQDVLAGREYGGYVFAVHMLLGGLSMFSLPRQFHVGYVENTHSDELKTARWAFPLYLFAINFFILPLSLSALHLAPELANQDTFMLVIPLMMDRPDITLIAFIGGLSAATSMVIIALLALSIMVSNDVVMPIWLRMTRQKLRQFSFTPTRILSIRRMTMVVVMFMAYLYYQATIESMPLVNSGLLSLALLTQLTPAILATVLWRSATQTGVLVGLVVGTALWVILLLVPSIGLQPQVTDIDIANGVLISLGANLICFWLFSLISKNVQTDLQSIQSSDDYEQQPSLTWARLRSLLSRFYDDRQLAAIQRRLRMDLLTPEGQSMVPAPMLVRIERELSAVIGTSASRLLLDTVSEQQEFPVSRVVDWATEASKLYQFNRELLQASVENIPQGISVVDQKLRLVAWNRRYLEIFDYPDGLVRAGMPVEELLRYNARRGLLSNSQNTDVEAEIQKRLNFLRTGSTYHYQRQQGELTVELQGSPMPGGGFVTTYSDITERVEAQRQLQKINQELEERVDERTQQLLSAKEAEEKAHESKSRFFAAVSHDLMQPFNAASLFCEMLQSRLPNEYLPLAVNIQRSLDHAEELLTMLLDMTKLDAGNLKPDYQEFSIDQALLPLVERYQAMAKEKQLRFHYHKSSALVKTDRKLLNRIIQNLLSNALRYTQHGRIVLGFRRHQQHLTICIIDTGSGIPEHKQTEIFREFHQLQSSGDNPGLGLGLSIVERMCRLLRIDLSLSSTLDKGTAFSLTLPVIGWQKEPQPVVIKNDSVDEKLLKDMRVLVIDNDPGVLKATAGLLTDWGAETMTASSFDQARKHPPCDLILADYHLDNGNTGIELVVSIRKLWNSNTPAIINSADPDELLREQALEANAYFIPKPLKSGALKRLLKRIRRI”, the protein production result is “failed”.

As to “MLSIGSGKLLIGCVAGLLVLGGATLGLGIGGFADVPADSETTVGEDELEIRAVQTPTEIRPDEPLRVQLRLTNAGSETTTKQVALQLSGDGDQQSLETVATKQVEVSAAEPTNVTLTVEPEQLSSGEYTYAVAVGESSSPETTGSVAVLTPPTFVLDDTTENATIVRGTNVSIRANLTNAGAYRGVQTVRIAVDEDQNGQYTDAERLDESVYSLAGGQSQVSTATAHTTDMEPGRYQYKIATENTTATGTLSVQQPATFRVQNTTAPVNVTKGETANVSVVVKNVGDVDGTDNVTIRSDSLNTTYSRSVSLAANETTTVSIGVNTTNLSSGTHNHSLGTSTDTDPVSMTVQDSHFEVSDLDGPNVLYVGDMAVFSADVTNTGNITGTQSIQHRIDSDDDDRPEAYGVDRNVTLAPGESTRVRFEIDYTVTDSTEYPVEPLRLQTYVHGIYSEDARASTAMSVKPSWAKDGGSSSYSGSTSVSEGDRASLDEITQDKYGRHYDEVSGETKRQVEEIHERQPFADGLAAAEVRTREEIARQEYDADVKAGEKFNFTGLDIETQQKVESDFDAQFETDSGDRIESWDELANDTYETSYENLTTSRQADIRTTYQDQFE”, the protein production entry was “failed”.

Take “MLSINPNEQTEKDNYKLLTGSIIPRPVAFVTSVTKEGVLNGAPYSYFNIVAANPPLISVSVQRKAGERKDTSRNAIEKGEFVVHISDESYVAAINETAANLPPNESEIELAKLTPIESEVISVPGVKEANIRMECVLERAIPLGGTEDSPACDLLIGRVVRFHVAEHLYEKGRIHAEGLKPISRLAGHNYAKLGEQFELVRPI”: the protein production result is “not failed”.

For “MLSKILYADSGTSQTQEMLKAMMDFPAVQKASITILHVVPPQITTEAFTEKWAEGGKILADLLEDVAIEPSKVSTVLRQGDPKGVVCDVANEIDADLIIMGSRGLKRLEAILENSVSQYVFQLTNHPMLLVKDDIYVKRIKRVMVALDKSAAAEYALELALELLRDYPEGELILARVNPDLKPDLLPLSRQEIEENPVLAPAIAKAKRLGIAYRCTVTGGKPGEKLCELAEDYNADLMLLGSPDRRPSIAKSLPDLDRLLGTSLSDYIRVNAPCPVLLTRKEGI”, the protein production result is given as “failed”.

With “MLSSGITKAKGMAVVSEGSVPMDQSVGHLPASLLSLVSDPVPKEKVLLPKALRQTLLEKGCHNVRAHGFDAISTQASACSSVAQAGARHTQPSSRARAQVRGHTGDPLASTVSPDLTPDVYVLRVKLEETGELFRVANCRNDMTVRELKEELDLMVGIPFNLQRLHFLDRGILMDDATLKFYDVIPGALISLCIWHYDGWTELVLAAVEGDPSKMSCLGISEDTFYRTANSQHFKGEQWRQWTAQRAFVALYISAHRGHVDAVQYLLGLGANCLAKSPLGRTPLHVVAAMGRTDCVQPLLEHGASIHDRDLKSDTPITIARRLKRGHLEHKMFLLYWMVKSGSRDPDLVGRKALEKSSPGMATRRSTILIS”, the protein production entry is given as “failed”.

On to “MLSTGLDELVYRSNLIGSDRAVCNWGGGNTSMKTVEKDFRGREIAVMWVKGSGSDLATMGAKNFTGLNLEDIRPLIEREEMSDEEMVEYLGHCMIDRNHPRPSIETLLHAFLPFKHVDHTHPDAIISICCADNGKEIAKNLFGDRFVWVPYVRPGFSLSKLIAEGVQKNPHAELVLMEKHGLVVWGETAKESYDRTISVINEAEAYIRSRINESVIFGGGKLEHHHHHH”, for which the protein production result is reported as “failed”.

Take “MLSTTTIGFPRIGNQRQLKFAMESYFKGDSGEAELLAVAHKVQSDAWALQKAAGIAVIGLDGTLYDQVLDTITWLGAIPPRFKHLSGLQRYYAMARGGAALDMSKFFDTNYHYLVPELGPDVLGPATAAGAPLQPDFSGPLDKLARGQAVVGRERAVPILIGPVTFVSLSRGCELPLDQAVARLLPTYCALLQQLAAAGAPEVQLHEPVLATSEGAGMRAEFETAYAQMAQAAGSVPLHLVTYYDDLGAAYPWAVQLPVAAVTLDFLGPPGAAVPSQTLALLQQHGFPADKRLGAGVVDGRSVWKDDGTAVALLRALLDTGAVSSDRLVVTSSAPLQHLPYDLGLELEAPKTPEAEPHLPPALAARLGFAKQKVEEIVSVARLAASPAAAAAAAGHGAVVQLQRLQQGKGVEDHTADIPAEWFSRPKPYDVRREQQLQLPAFPTTTIGSFPQTAEVRRLRQQLKSGRLTQAEYEGLIAGHIAHAVGVQEALGIDVLVHGEAERTDMVEYFGMQLGGMLFTRAGWVQSYGSRCVRPPLVVDDITYRGPMTCWEYKVASAYTRKPVKGMLTGPVTILNWSFPRKDISRAAQAMQLGLALRQEVAALEAAGCTIIQVDDPALREGLPLKRERWASYLSWAVDAFRLCTGVAAAGTQVVTHLCYSDFQDILPAIDRMDADVLTIENSRSDNAMMAALAAAGYGRDIGPGVYDVHSPVVPSVEFIKSRIRSFVDSGILSGRYDRIWVNPDCGLKTRGWPETIAALRNMVEAAAQARAELQLAGGAAVAPVAGGVEAAGKGAALGAAAGTSRCVDCCH”: the protein production entry is “not failed”.

For “MLSVFLEIIYERQLRKINLKILTDFINLIKEESLSNGAEFIQVQGGFYFLFKKKSIAYAFSTARFLYNVNKILISYKNKISEVRCITDYYEEDVSNEALFESLSLYKKQLIPEMGMFASREAANKLSKYIDFNETDSSILLCNAFKFFENINLTSNKNADKNASIILHRNDNYFWSIYNFILANPLDNDSLKAMSNEDRISFLATKNVYIYLKKHRFSKDMPQYFIDAFLTNAAIYLKNYIKKQNGRRSVKVLIDNLNDKKNLDEAEKIYAVNKYMEIEALDSSLPSIYNIPDDLLQLIYIILVSSKYFFYDEITDFLVSLNKSKAFFDDVYAWMYSMGIILVENNIYAVPYGLPEIIERRINLSKNMVDSNITEYLWAKYKKGILNANSDAEKIFDSLNFKCKPDFLLASIFHNYSDSSIEGLDLKKYKNEIFYDALKYYQNSIIANIDDSTAKSYAYLKTAIGFFQENKLESGEYRAFSLLAFFNLMQNKISDAITYFSYALDNAEHSHDTSFICDALFNISIVYFLQNNLKQSITFLDRLAAAVDEYFEQDWKIPYLFMKGRVYLQIGEFNKAADSFRMASDFADLYFDKIEPLCKSWYGRSLIYMGQIKNGQEILIKYIDYTDDALLFLLESFLFYPVLNNDFEKMDLDISSIYSAYNNSGLTDFINLKSGFSIAEDLIWSNIYDMSIGKKMFDAFYNYYNCKINFSKMYDIEECKILLSNLEASAVESLYQNDPYSSLYMYLCYDLSVKLYGENSSQTIAYLSKAFKSMQKNVLAIGENDIRDKYMQNNLWNSKLFKVAKNQKLI”, the protein production entry was “failed”.

In the case of “MLSYDIEVLKIINDEDNISQRRLAEMLNISLGKINSLLKELLTKEYIVKIDIDKRNVKYELTEAGIALLENSLDKVKSTKLSIHKHKFHKVKQAVILGAGGKGDFGKPAGFLELEEFRIIDRIIDILKSNGIEKIVIVNGYKKEYYEELAEKDSTIFCVTNSNYKWTGTMSSLALAKEYIDDDFILVENDLVFESRAVEQIIKNDNRDCVLITNESGSGDEAFVEIRDGYLFKMSKDVHQFNKIDGEMIGISKISYKLFKMMLEEFKHNINPYMNYEYTMLDVARNYKVGYEKINDLVWGEIDNKDQYEKVKKHIIPMIRRKEMQYKIDQVKSAIVNGLKVSEEEVKEIVPVGGMTNKNYKAFVNDKAYIVRIPGLGTSSMINRRDEMINSKLAADEGIDAKILFFDEESGVKIAELIEGAETLNPATAKKKENMELVVGALRTLHNSEIKMENRFNVFEKIEDYESLVKKVSGTLFEDYYEIKTRVLKLEKVLEDNGMEIKPCHNDTVPENFVKDINERMYLIDWEYSGLNDPMWDLAAHSIECDFSEDDEELFLNLYFNNLIEDKHKIRILVYKICQDFLWSIWTILKEAQGDDFGTYGIDRYNRGKKNLELLDKILMGQ”, the protein production result was “failed”.

Consider “MLSYDLNERLLTAVQSGDFEQALGCIMQGAQASYVSPTCGRTAVGTAAILGDAELLELLLQSCEEPELNVFHQSNTDSLEIERTPEGMEKLEWVDEFENSAENGAGSGEEDSQLYQYYAKTFETTGEFISSQCCVSCREHDPHLYDADVATPLHYAAYWGHEECVRILLEHNAPINVLNNDGYAPLHLGAGFAGVTELLIKHGALVNAKTLSDGKTALHMAIESKCAESARLLLQTNININDTDDDGETPLMAAIACSMLDVAEELVKRGARINIQDKQNHTALQYAVRGRHTQMAKLLLERGARRLASQHLLHLAVESNVKELVELLLQYGESLSVWNLKNFTPIMLAIHRGRHEMLEYLLNVAEEQRKLGLYSDVHDEGLVLFAVQQNFWVKEFSRILRVLLAKSPSARNDFYDSCAPTIVCGLIYCHTPLSRAINLHRLEVAEFLIHEGCNLAQICREHVVNELRSNCTPTRLAFARLLCNAGFQFPHKHRPLPKDWPPARLEFEREMCLLGTQPRSLQSLARLEIRRSLLRCLQTRPEVQERYLPTQERSSLGRIVDEFAIPATLKRYLSDFDELPPVRGMEPVDIPVVKWTESWD”, for which the protein production result was “failed”.

As to “MLSYKHSNATLPILWGEAKRGDFDDLDKAFTQLLLTIGKHRLYTHHTPPYLCAFNAFKMEFIAFDDTITSFFYKSDIDFSITPSNHNTEGFKHALDAFKAMSKSHKFVFDFKTQSQECKEFIKNRLNSSHLLSKIQIDKNNFFTIYQKWLEIVKPTIDINWEVAKTKDILDADYYLADLLSDGDKTIIEKLHTILRSSHYKLNRGVNELGKMDFMEVGFTDSQQAHQEFWSVYERPPKREFQASILERRDLLVPSDVRERKGAFFTPKIWVEKSQEYLAKALGQDYQEDCIIWDCAGGTGNLLRGLLNKANLYLSTLDHNDVAIVKDLAAKNHLKLLENHVFQFDFLNDDFFSDKTPKSLQEILKDKEKRKKLIIYINPPYAEAGNKSKMSGTGEHKAKVARDNLICEKYKNELGKANNEVFAQFFMRIYKELNGVILASFSTLKNLQGSNFKKFREIFKAKFLEGFMVPADTFDNVRGQFPIGFLVWDTSSILPKENPLNLGGNSKEEKQNSNLILDQDNLKDNPLKERFCLLDINAPNRKMCSQSRTRTKGTQKHSTAAPFETPLHTVSLEIFDSFGGFLGSKKIYTHTIDKMLTLADYLQKFQPTKRDTIFGYLDPGRNSFQHQNLIHISIIDKSKQSHVKYFPIIATTILLVSVFFSIRHCIKATWQNDRDQFYAPYDDAFQDDSEFKNNCLIFMLFHTQNRITTAQGTNHFIPFSETEVNAKERYSSHALLEFLKGEIKELKENDSLFLSAKKENKPLKFSPSASKVFDASREVYRYYHTQDFTNRPYNANASLYDIKEFFQGRNKQGKLNLPAKAKDEYYKQLYANLQDALKDLAKEIQPKVYEYGFLRE”, the protein production result is “failed”.

Source of the values: a protein production outcome set (Wang et al. 2014).
